One block for each binder: values may come before it.
Key:
Experiment in all cases: pull-down
[1] = biological target: T1, SUMO-Rps3 (yeast, UniProt P05750 1-240)
T1 sequence: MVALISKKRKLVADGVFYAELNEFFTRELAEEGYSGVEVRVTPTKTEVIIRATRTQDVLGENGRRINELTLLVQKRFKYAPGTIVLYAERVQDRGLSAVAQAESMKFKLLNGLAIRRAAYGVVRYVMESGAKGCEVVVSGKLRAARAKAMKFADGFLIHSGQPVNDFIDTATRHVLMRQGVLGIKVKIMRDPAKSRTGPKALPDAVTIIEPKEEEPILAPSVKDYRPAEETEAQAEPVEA

[2] = biological target: T2, Enp1-TPR (residues 154-483) (yeast, UniProt P38333 154-483)
T2 sequence (looked up): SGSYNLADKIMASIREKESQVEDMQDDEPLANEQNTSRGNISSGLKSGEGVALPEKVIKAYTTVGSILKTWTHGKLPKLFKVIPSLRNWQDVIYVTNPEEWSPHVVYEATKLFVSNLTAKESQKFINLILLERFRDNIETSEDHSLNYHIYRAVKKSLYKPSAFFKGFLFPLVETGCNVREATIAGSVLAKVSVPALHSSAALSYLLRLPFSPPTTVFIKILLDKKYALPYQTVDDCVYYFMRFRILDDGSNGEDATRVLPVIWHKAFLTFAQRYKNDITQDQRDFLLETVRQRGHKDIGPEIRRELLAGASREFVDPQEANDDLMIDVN

[3] = biological target: T3, Enp1 (yeast, UniProt P38333 1-483)
T3 sequence (looked up): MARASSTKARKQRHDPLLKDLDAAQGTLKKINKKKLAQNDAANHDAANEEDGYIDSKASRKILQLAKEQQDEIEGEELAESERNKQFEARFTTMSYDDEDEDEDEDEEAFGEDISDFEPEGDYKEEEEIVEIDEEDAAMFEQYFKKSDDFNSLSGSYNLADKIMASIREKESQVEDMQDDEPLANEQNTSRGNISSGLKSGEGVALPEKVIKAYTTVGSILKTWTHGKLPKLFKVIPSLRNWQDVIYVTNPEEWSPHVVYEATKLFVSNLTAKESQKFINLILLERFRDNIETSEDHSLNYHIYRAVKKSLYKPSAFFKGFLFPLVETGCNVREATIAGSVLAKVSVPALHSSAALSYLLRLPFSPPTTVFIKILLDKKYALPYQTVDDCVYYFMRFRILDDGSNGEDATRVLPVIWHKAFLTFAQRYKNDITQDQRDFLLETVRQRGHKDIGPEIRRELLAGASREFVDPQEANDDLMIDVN

binding result [1]: binds
binding result [2]: binds
binding result [3]: binds
B1: Ltv1-M (residues 185-394) (domain or fragment, yeast, UniProt P34078 185-394, looked up)
chain: DDVVVEDISKKTQLQGDNYGEEEKEDDIFAQLLGSGEAKDEDEFEDEFDEWDIDNVENFEDENYVKEMAQFDNIENLEDLENIDYQADVRRFQKDNSILEKHNSDDEFSNAGLDSVNPSEEEDVLGELPSIQDKSKTGKKKRKSRQKKGAMSDVSGFSMSSSAIARTETMTVLDDQYDQIINGYENYEEELEEDEEQNYQPFDMSAERSD

binding result [1]: binds
B2: Ltv1-N (N-terminal 180 residues) (domain or fragment, yeast, UniProt P34078 1-180, looked up)
chain: MSKKFSSKNSQRYVVVHRPHDDPSFYDTDASAHVLVPVSNPNKTSPEADLRKKDVSSTKPKGRRAHVGEAALYGINFDDSEYDYTQHLKPIGLDPENSIFIASKGNEQKVEKKNIEDLFIEPKYRRDEIEKDDALPVFQRGMAKPEYLLHQQDTTDEIRGFKPDMNPALREVLEALEDEA

Source: paper PMC5314460 (Structure (London, England : 1993), 2017)
